Reference: the MegaScale stability set (Tsuboyama et al. 2023)

B1: r16_88_TrROS_Hall (parent)
chain: EVIELKIKFKTPEQREKLKEIAKKLNAEVVEEKDGEVIIRFKTPEQAERALKEAEKLGAEVEL

Variants of: B1
Assay: folding stability dG (cDNA display proteolysis); higher = more stable
Conditions: PBS, room temperature

Variant | folding stability dG [kcal/mol]
EVIELKIKFKTPEQREKLKEIAKKLNAEVVEEKDGEVIRRFKTPEQAERALKEAEKLGAEVEL | 0.96
EVIELKIKFKTPEQREKLKEIAKKLNAEVVEEKDGEVILRFKTPEQAERALKEAEKLGAEVEL | 4.67
EVIELKIKFKTPEQREKLKEIAKKLNAEVVEEKDGEVIHRFKTPEQAERALKEAEKLGAEVEL | 3.68
EVIELKIKFKTPEQREKLKEIAKKLNAEVVEEKDGEVIYRFKTPEQAERALKEAEKLGAEVEL | 5
EVIELKIKFKTPEQREKLKEIAKKLNAEVVEEKDGEVIPRFKTPEQAERALKEAEKLGAEVEL | 0.941
EVIELKIKFKTPEQREKLKEIAKKLNAEVVEEKDGEVIQRFKTPEQAERALKEAEKLGAEVEL | 3.99
EVIELKIKFKTPEQREKLKEIAKKLNAEVVEEKDGEVIMRFKTPEQAERALKEAEKLGAEVEL | 4.65
EVIELKIKFKTPEQREKLKEIAKKLNAEVVEEKDGEVIKRFKTPEQAERALKEAEKLGAEVEL | 1.68
EVIELKIKFKTPEQREKLKEIAKKLNAEVVEEKDGEVIVRFKTPEQAERALKEAEKLGAEVEL | 4.44
EVIELKIKFKTPEQREKLKEIAKKLNAEVVEEKDGEVINRFKTPEQAERALKEAEKLGAEVEL | 2.82
EVIELKIKFKTPEQREKLKEIAKKLNAEVVEEKDGEVITRFKTPEQAERALKEAEKLGAEVEL | 3.95
EVIELKIKFKTPEQREKLKEIAKKLNAEVVEEKDGEVISRFKTPEQAERALKEAEKLGAEVEL | 3.19
EVIELKIKFKTPEQREKLKEIAKKLNAEVVEEKDGEVIIGFKTPEQAERALKEAEKLGAEVEL | 4.15
EVIELKIKFKTPEQREKLKEIAKKLNAEVVEEKDGEVIIHFKTPEQAERALKEAEKLGAEVEL | 4.04
EVIELKIKFKTPEQREKLKEIAKKLNAEVVEEKDGEVIIDFKTPEQAERALKEAEKLGAEVEL | 3.83
EVIELKIKFKTPEQREKLKEIAKKLNAEVVEEKDGEVIICFKTPEQAERALKEAEKLGAEVEL | 4.37
EVIELKIKFKTPEQREKLKEIAKKLNAEVVEEKDGEVIILFKTPEQAERALKEAEKLGAEVEL | 4.5
EVIELKIKFKTPEQREKLKEIAKKLNAEVVEEKDGEVIIEFKTPEQAERALKEAEKLGAEVEL | 3.93
EVIELKIKFKTPEQREKLKEIAKKLNAEVVEEKDGEVIITFKTPEQAERALKEAEKLGAEVEL | 4.79
EVIELKIKFKTPEQREKLKEIAKKLNAEVVEEKDGEVIIYFKTPEQAERALKEAEKLGAEVEL | 4.86
EVIELKIKFKTPEQREKLKEIAKKLNAEVVEEKDGEVIIWFKTPEQAERALKEAEKLGAEVEL | 4.77
EVIELKIKFKTPEQREKLKEIAKKLNAEVVEEKDGEVIIIFKTPEQAERALKEAEKLGAEVEL | 4.47

Variant | folding stability dG [kcal/mol]
EVIELKIKFKTPEQREKLKEIAKKLNAEVVEEKDGEVIIPFKTPEQAERALKEAEKLGAEVEL | 2.96
EVIELKIKFKTPEQREKLKEIAKKLNAEVVEEKDGEVIIAFKTPEQAERALKEAEKLGAEVEL | 4.3
EVIELKIKFKTPEQREKLKEIAKKLNAEVVEEKDGEVIIMFKTPEQAERALKEAEKLGAEVEL | 4.64
EVIELKIKFKTPEQREKLKEIAKKLNAEVVEEKDGEVIISFKTPEQAERALKEAEKLGAEVEL | 4.38
EVIELKIKFKTPEQREKLKEIAKKLNAEVVEEKDGEVIIFFKTPEQAERALKEAEKLGAEVEL | 4.66
EVIELKIKFKTPEQREKLKEIAKKLNAEVVEEKDGEVIINFKTPEQAERALKEAEKLGAEVEL | 4.13
EVIELKIKFKTPEQREKLKEIAKKLNAEVVEEKDGEVIIVFKTPEQAERALKEAEKLGAEVEL | 4.64
EVIELKIKFKTPEQREKLKEIAKKLNAEVVEEKDGEVIIKFKTPEQAERALKEAEKLGAEVEL | 4.27
EVIELKIKFKTPEQREKLKEIAKKLNAEVVEEKDGEVIIQFKTPEQAERALKEAEKLGAEVEL | 4.07
EVIELKIKFKTPEQREKLKEIAKKLNAEVVEEKDGEVIIRHKTPEQAERALKEAEKLGAEVEL | 3.13
EVIELKIKFKTPEQREKLKEIAKKLNAEVVEEKDGEVIIRCKTPEQAERALKEAEKLGAEVEL | 4.28
EVIELKIKFKTPEQREKLKEIAKKLNAEVVEEKDGEVIIRLKTPEQAERALKEAEKLGAEVEL | 4.01
EVIELKIKFKTPEQREKLKEIAKKLNAEVVEEKDGEVIIRNKTPEQAERALKEAEKLGAEVEL | 3.33
EVIELKIKFKTPEQREKLKEIAKKLNAEVVEEKDGEVIIRIKTPEQAERALKEAEKLGAEVEL | 4.16
EVIELKIKFKTPEQREKLKEIAKKLNAEVVEEKDGEVIIRMKTPEQAERALKEAEKLGAEVEL | 4.14
EVIELKIKFKTPEQREKLKEIAKKLNAEVVEEKDGEVIIRDKTPEQAERALKEAEKLGAEVEL | 0.465
EVIELKIKFKTPEQREKLKEIAKKLNAEVVEEKDGEVIIRKKTPEQAERALKEAEKLGAEVEL | 0.67
EVIELKIKFKTPEQREKLKEIAKKLNAEVVEEKDGEVIIREKTPEQAERALKEAEKLGAEVEL | 0.961
EVIELKIKFKTPEQREKLKEIAKKLNAEVVEEKDGEVIIRGKTPEQAERALKEAEKLGAEVEL | 3.01
EVIELKIKFKTPEQREKLKEIAKKLNAEVVEEKDGEVIIRPKTPEQAERALKEAEKLGAEVEL | 3.46
EVIELKIKFKTPEQREKLKEIAKKLNAEVVEEKDGEVIIRAKTPEQAERALKEAEKLGAEVEL | 4.49
